The record followed here is patent US6627739.

Data set [1] addresses wild-type APP (βAPP 751) expressed from pohCK751 in 293T cells, P05067.
Data set [2] addresses Swedish mutant APP (βAPP 751 sw) expressed from pohCK751 in 293T cells, P05067.
Data set [3] deals with MBP-C125sw fusion protein [MBP: P0AEX9].

Chain of Swedish mutant APP (βAPP 751 sw) expressed from pohCK751 in 293T cells, P05067 (P05067 whole entry, looked up, change not shown, the tested form may be a part): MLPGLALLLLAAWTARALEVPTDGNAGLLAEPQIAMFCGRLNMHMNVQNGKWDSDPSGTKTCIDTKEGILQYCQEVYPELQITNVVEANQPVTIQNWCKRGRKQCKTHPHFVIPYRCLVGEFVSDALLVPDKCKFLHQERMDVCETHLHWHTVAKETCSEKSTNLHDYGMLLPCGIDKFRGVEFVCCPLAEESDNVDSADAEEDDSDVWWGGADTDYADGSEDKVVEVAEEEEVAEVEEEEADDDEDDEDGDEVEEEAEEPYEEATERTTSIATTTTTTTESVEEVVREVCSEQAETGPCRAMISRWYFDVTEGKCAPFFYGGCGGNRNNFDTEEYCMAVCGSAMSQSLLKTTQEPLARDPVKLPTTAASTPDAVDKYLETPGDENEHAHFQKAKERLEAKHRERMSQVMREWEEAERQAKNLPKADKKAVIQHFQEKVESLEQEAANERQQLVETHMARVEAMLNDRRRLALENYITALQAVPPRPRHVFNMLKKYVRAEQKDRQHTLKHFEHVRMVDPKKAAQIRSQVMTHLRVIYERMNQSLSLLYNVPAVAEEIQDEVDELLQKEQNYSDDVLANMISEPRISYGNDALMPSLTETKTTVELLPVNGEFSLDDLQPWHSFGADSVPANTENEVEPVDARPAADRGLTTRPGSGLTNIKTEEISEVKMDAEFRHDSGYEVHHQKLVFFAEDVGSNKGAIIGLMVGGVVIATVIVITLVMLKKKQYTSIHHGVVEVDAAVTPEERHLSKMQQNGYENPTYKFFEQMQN
Chain of wild-type APP (βAPP 751) expressed from pohCK751 in 293T cells, P05067 (P05067 whole entry, looked up): as the sequence (P05067 whole entry, looked up, change not shown, the tested form may be a part) above

B1: recombinant full-length human β-secretase (1-501) expressed from pCEK clone 27 / pCFβA2 in 293T or Cos A2 cells (protein)
chain: ETDEEPEEPGRRGSFVEMVDNLRGKSGQGYYVEMTVGSPPQTLNILVDTGSSNFAVGAAPHPFLHRYYQRQLSSTYRDLRKGVYVPYTQGKWEGELGTDLVSIPHGPNVTVRANIAAITESDKFFINGSNWEGILGLAYAEIARPDDSLEPFFDSLVKQTHVPNLFSLQLCGAGFPLNQSEVLASVGGSMIIGGIDHSLYTGSLWYTPIRREWYYEVIIVRVEINGQDLKMDCKEYNYDKSIVDSGTTNLRLPKKVFEAAVKSIKAASSTEKFPDGFWLGEQLVCWQAGTTPWNIFPVISLYLMGEVTNQSFRITILPQQYLRPVEDVATSQDDCYKFAISQSSTGTVMGAVIMEGFYVVFDRARKRIGFAVSACHVHDEFRTAAVEGPFVTLDMEDCGYNIPQTDESTLMTIAYVMAAICALFMLPLCLMVCQWRCLRCLRQQHDDFADDISLLK
On to B1, for which the “Aβ(x-40) production, ELISA of conditioned media” value is recorded as “approximately 8-fold increase in Aβ(x-40) production” in data set [1] and “approximate 2-fold increase in Aβ(x-40)” in data set [2].

B2: naturally occurring human β-secretase purified from human brain (protein)
chain: ETDEEPEEPGRRGSFVEMVDNLRGKSGQGYYVEMTVGSPPQTLNILVDTGSSNFAVGAAPHPFLHRYYQRQLSSTYRDLRKGVYVPYTQGKWEGELGTDLVSIPHGPNVTVRANIAAITESDKFFINGSNWEGILGLAYAEIARPDDSLEPFFDSLVKQTHVPNLFSLQLCGAGFPLNQSEVLASVGGSMIIGGIDHSLYTGSLWYTPIRREWYYEVIIVRVEINGQDLKMDCKEYNYDKSIVDSGTTNLRLPKKVFEAAVKSIKAASSTEKFPDGFWLGEQLVCWQAGTTPWNIFPVISLYLMGEVTNQSFRITILPQQYLRPVEDVATSQDDCYKFAISQSSTGTVMGAVIMEGFYVVFDRARKRIGFAVSACHVHDEFRTAAVEGPFVTLDMEDCGYNIPQTDESTLMTIAYVMAAICALFMLPLCLMVCQWRCLRCLRQQHDDFADDISLLK
In data set [3], B2 displayed a Specific Activity (MBP-C125 sw assay), Anion Exchange Pool (nM/h/µg prot.) of 1.49e+06.

B3: FLp501, full length recombinant β-secretase having a C-terminal flag sequence (protein)
chain: ETDEEPEEPGRRGSFVEMVDNLRGKSGQGYYVEMTVGSPPQTLNILVDTGSSNFAVGAAPHPFLHRYYQRQLSSTYRDLRKGVYVPYTQGKWEGELGTDLVSIPHGPNVTVRANIAAITESDKFFINGSNWEGILGLAYAEIARPDDSLEPFFDSLVKQTHVPNLFSLQLCGAGFPLNQSEVLASVGGSMIIGGIDHSLYTGSLWYTPIRREWYYEVIIVRVEINGQDLKMDCKEYNYDKSIVDSGTTNLRLPKKVFEAAVKSIKAASSTEKFPDGFWLGEQLVCWQAGTTPWNIFPVISLYLMGEVTNQSFRITILPQQYLRPVEDVATSQDDCYKFAISQSSTGTVMGAVIMEGFYVVFDRARKRIGFAVSACHVHDEFRTAAVEGPFVTLDMEDCGYNIPQTDESTLMTIAYVMAAICALFMLPLCLMVCQWRCLRCLRQQHDDFADDISLLKYKDDDDK
For B3, in data set [3], the cleavage of substrate result is given as “Both enzymes exhibited activity in cleaving β-secretase substrates such as MBP-C125”.

B4: 452stop, recombinant β-secretase truncated at position 452 (1-452) (protein)
chain: ETDEEPEEPGRRGSFVEMVDNLRGKSGQGYYVEMTVGSPPQTLNILVDTGSSNFAVGAAPHPFLHRYYQRQLSSTYRDLRKGVYVPYTQGKWEGELGTDLVSIPHGPNVTVRANIAAITESDKFFINGSNWEGILGLAYAEIARPDDSLEPFFDSLVKQTHVPNLFSLQLCGAGFPLNQSEVLASVGGSMIIGGIDHSLYTGSLWYTPIRREWYYEVIIVRVEINGQDLKMDCKEYNYDKSIVDSGTTNLRLPKKVFEAAVKSIKAASSTEKFPDGFWLGEQLVCWQAGTTPWNIFPVISLYLMGEVTNQSFRITILPQQYLRPVEDVATSQDDCYKFAISQSSTGTVMGAVIMEGFYVVFDRARKRIGFAVSACHVHDEFRTAAVEGPFVTLDMEDCGYNIPQTDEYKDDDDK
In the case of B4, in data set [3], the cleavage of substrate result is “The C-terminal truncated form of the enzyme exhibited activity in leaving the MBP-C125sw substrate as well as the P26-P4′ substrate”.
